Measured values as given in patent US20060270591A1, “Androgen receptor coregulators” (priority 2002, published 2006).
Where two headings read alike, the source gives them in different places.

Legend:
PR [1] = target: T1, PR (Homo sapiens, UniProt P06401); experiment: PR transcription activity, MMTV-CAT reporter (Example 1); type: cell-based; details: DU145 cells
T1 construct: expressed in transfected cells; host or cells: DU145, PC-3
T1 sequence (P06401 1-933): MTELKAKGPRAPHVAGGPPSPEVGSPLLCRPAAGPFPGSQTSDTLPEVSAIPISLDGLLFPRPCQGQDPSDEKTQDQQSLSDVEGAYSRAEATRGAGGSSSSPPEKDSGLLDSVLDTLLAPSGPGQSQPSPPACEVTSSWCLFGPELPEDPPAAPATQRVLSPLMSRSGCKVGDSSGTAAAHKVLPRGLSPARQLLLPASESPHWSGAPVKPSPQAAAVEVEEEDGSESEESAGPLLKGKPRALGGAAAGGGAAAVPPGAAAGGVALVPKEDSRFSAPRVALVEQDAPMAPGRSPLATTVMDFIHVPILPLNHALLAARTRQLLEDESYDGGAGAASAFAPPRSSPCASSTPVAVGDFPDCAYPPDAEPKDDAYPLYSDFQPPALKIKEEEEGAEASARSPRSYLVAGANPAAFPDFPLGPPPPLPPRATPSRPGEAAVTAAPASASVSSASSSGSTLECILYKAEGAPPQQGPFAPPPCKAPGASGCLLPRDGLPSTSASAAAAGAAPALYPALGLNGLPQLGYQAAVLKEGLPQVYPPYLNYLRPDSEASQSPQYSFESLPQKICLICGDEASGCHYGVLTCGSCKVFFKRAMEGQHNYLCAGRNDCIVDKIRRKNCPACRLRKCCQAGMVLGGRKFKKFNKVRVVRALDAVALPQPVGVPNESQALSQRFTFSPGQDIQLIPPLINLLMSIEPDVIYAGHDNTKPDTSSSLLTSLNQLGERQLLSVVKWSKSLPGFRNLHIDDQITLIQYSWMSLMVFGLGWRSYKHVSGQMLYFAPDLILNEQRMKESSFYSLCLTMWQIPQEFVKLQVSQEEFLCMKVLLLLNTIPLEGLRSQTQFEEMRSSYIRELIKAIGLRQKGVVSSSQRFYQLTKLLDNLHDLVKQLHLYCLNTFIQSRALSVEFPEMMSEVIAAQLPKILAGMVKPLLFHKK
Description: 366. Human prostate cancer DU145 or PC3 cells, or human lung carcinoma cells NCI H1299 were grown in Dulbecco's minimal essential medium (DMEM) containing penicillin (25 U/ml), streptomycin (25˜g/ml), and 5% fetal calf serum (FCS). One hour before transfection, the medium was changed to DMEM with 5% charcoal-stripped FCS. Phenol red-free and serum-free media were used on the experiments employing E2 or TGF-β, respectively. A β-galactosidase expression plasmid, pCMV-β-gal, was used as an internal control for transfection efficiency.
367. Cells were transfected using the calcium phosphate technique (Yeh, et al. Molec. Endocrinol. 8:77-88, 1994). The medium was changed 24 hr posttransfection and the cells treated with either steroid hormones or hydroxyflutamide, and cultured for an additional 24 hr. Cells were harvested and assayed for CAT activity after the cell lysates were normalized by using β-galactosidaseas an internal control. Chloramphenicol acetyltransferase (CA) activity was visualized by PhosphorImager (Molecular Dynamics) and quantitated by ImageQuant software (Molecular Dynamics).

PR [2] = target: T1, PR; details: previous studies; cited from earlier work
PSA = experiment: Western blot of endogenous PSA in stably transfected LNCaP cells; type: cell-based, human; details: stable LNCaP cells; +doxy; 1 nM DHT; vector alone without doxy = 100%
Excerpt: 14. […] (A) The effects of C′-ARA54 and mt-ARA54 on cell proliferation. […] Total cell number was counted by hemocytometer. Values represent the mean±SD of at least three determinations. (B) The effects of C′-ARA54 and mt-ARA54 on AR transcription activity. LNCaP cells stably transfected with pBIG2i (vector alone), pBIG2i-C′-ARA54, pBIG2i-mt-ARA54, or pBIG2i-fl-ARA54 were transiently transfected with MMTV-Luc. […] Values represent the mean±SD of at least three determinations. (C) The effects of C′-ARA54 and mt-ARA54 on PSA expression. […] The 33-kDa of protein was detected as indicated and quantitated by Collage Image Analysis software (Fotodyne). The normalized expression level in the first lane (vector alone without doxy treatment) was set as 100%. Values represent the mean±SD of three separate experiments.
395. […]

B1: ARA54: 54 kDa protein that interacts with AR in an androgen-dependent manner; AR coactivator (protein)
chain: MSSEDREAQEDELLALASIYDGDEFRKAESVQGGETRIYLDLPQNFKIFVSGNSNECLQNSGFEYTICFLPPLVLNFELPPDYPSSSPPSFTLSGKWLSPTQLSALCKHLDNLWEEHRGSVVLFAWMQFLKEETLAYLNIVSPFELKIGSQKKVQRRTAQASPNTELDFGGAAGSDVDQEEIVDERAVQDVESLSNLIQEILDFDQAQQIKCFNSKLFLCSICFCEKLGSECMYFLECRHVYCKACLKDYFEIQIRDGQVQCLNCPEPKCPSVATPGQVKELVEAELFARYDRLLLQSSLDLMADVVYCPRPCCQLPVMQEPGCTMGICSSCNFAFCTLCRLTYHGVSPCKVTAEKLMDLRNEYLQADEANKRLLDQRYGKRVIQKALEEMESKEWLEKNSKSCPCCGTPIEKLDGCNKMTCTGCMQYFCWICMGSLSRANPYKHFNDPGSPCFNRLFYAVDVDDDIWEDEVED
PR [1]
  enhancement of the transcription activity of PR: 3-5 fold
PR [2]
  enhancement of the transcription activity of PR: up to 4 fold

B2: C′-ARA54: C-terminal region (amino acids 361-474) of ARA54 (protein)
chain: RNEYLQADEANKRLLDQRYGKRVIQKALEEMESKEWLEKNSKSCPCCGTPIEKLDGCNKMTCTGCMQYFCWICMGSLSRANPYKHFNDPGSPCFNRLFYAVDVDDDIWEDEVED
modifications: Homo sapien
notes: C-terminal region (amino acids 361-474) of ARA54
PSA
  endogenous PSA expression: 87%
